Data on one molecule can be found in PMC11388081, “Targeted degradation of VEGF with bispecific aptamer-based LYTACs ameliorates pathological retinal angiogenesis”.

The target of this data set is VEGF (HZ-1038, Proteintech) (UniProt P15692-4 27-191). The data set is described as follows: MST; strongest of V4-V6; Kd only in figure; 20 mM CaCl2; MST: 5 nM Cy5-LYTAC, 20 mM Tris-HCl pH 8.5, 20 mM KCl, 20 mM CaCl2, 0.1% Tween 20, 10 min, temperature not stated; pulldown: cell lysate with LYTAC in DPBS-Mg. The note with it: protein: commercial; chain copies: 2; biotin implied in pulldown; 23-bp linker duplex formed by both 5' ends, 3' single-stranded aptamer tails.
Sequence of VEGF (HZ-1038, Proteintech) (P15692 other isoform, or with tags, fused parts or gaps): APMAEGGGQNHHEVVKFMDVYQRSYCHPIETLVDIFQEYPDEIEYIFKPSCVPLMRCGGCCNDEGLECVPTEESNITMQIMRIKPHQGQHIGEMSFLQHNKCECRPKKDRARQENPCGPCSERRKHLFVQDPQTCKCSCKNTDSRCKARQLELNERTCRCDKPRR

B1: V5 (M6PR-A / VEGF-A2 LYTAC) (mixed)
DNA 1: CCCCCACACGTAAATCAGTCATAGGGCGCGTAGATGACGAGCAGTCCTAACATCGTTTAGGAC
DNA 2: TATGACTGATTTACGTGTGGGGGTGTGGGGGTGGACGGGCCGGGTAGA
modifications: 5'-phosphate on strand 1 (T4 DNA ligase step stated)
For B1, the binding result was “binds”.
